Laboratory results published in patent EP4722228A1, “NEW COMPOUND TARGETING MUSK AND USE THEREOF” (The University of Tokyo, priority 2023, dated 2024).
Bridge positions count the residues as written; N and C are the ends. Square brackets hold non-standard residues; d marks the D form. Ends that are not written are not given here.

Molecular target: hMuSK-Fc (chimeric protein of the secretory human MuSK extracellular portion and human IgG1 Fc) (human) (UniProt O15146)
Assay: SPR (Biacore T200), Fc-tagged human MuSK on Protein G/A chip, 1:1 fit

hMuSK-Fc (chimeric protein of the secretory human MuSK extracellular portion and human IgG1 Fc) (human), sequence (O15146 24-493, change not shown, form in doubt): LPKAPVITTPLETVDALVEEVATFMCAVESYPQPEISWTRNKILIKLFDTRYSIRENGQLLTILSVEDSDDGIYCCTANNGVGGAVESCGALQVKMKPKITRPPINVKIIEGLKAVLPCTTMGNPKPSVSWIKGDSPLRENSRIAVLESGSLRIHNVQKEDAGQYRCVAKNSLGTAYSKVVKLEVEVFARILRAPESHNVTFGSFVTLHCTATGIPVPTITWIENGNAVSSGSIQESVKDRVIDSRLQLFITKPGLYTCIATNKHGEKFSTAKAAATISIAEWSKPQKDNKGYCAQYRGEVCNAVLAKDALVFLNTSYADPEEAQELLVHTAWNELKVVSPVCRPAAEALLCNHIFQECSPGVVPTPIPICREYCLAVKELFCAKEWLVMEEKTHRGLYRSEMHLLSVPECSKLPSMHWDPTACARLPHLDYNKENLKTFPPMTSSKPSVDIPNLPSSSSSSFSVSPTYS

Kd: 0.9 nM
B1: Homodimer of MuSK7 with an introduced palmitoyl group (MuSK7-pal) (peptide)
peptide: {CH2CO}-[dY]PSYHTNVVASLKRC
modifications: thioether N-15; also: homodimer: two peptides condensed via C-terminal Cys carboxyl with linking unit bearing palmitic acid
